The molecules below were run against T1, N-Ras.mant-GMPPNP (Homo sapiens, UniProt P01111) (assay: Fluorescence anisotropy titration of PI3Kγ 144-1102 into N-Ras.mant-GMPPNP). Conditions: mutants in the 144-1102 construct, FIG. 2A.
T1 construct: fluorescence anisotropy of full length, unmodified N-Ras.mant-GMPPNP
Type: binding
Protocol: Mant-nucleotides were synthesised as described previously (Jameson and Eccleston, 1997). N-Ras and H-Ras mutants were loaded with mant-GMPPNP as in (Moore et al., 1993), gel filtered into running buffer (20 mM Tris pH 7.5, 2 mM MgCl2, 1 mM DTT), and frozen at −80° C. The concentration of Ras.mant-GMPPNP was determined by measuring the absorbance of the mant group at […] with ε=5700 M^−1 cm^−1 (Hiratsuka, 1983). For binding assays, the 144-1102 human PI3Kγ was titrated into a 1 μM solution of fill length, unmodified N-Ras.mant-GMPPNP. Data were collected with SLM 8000 S and ISS PC1 spectrofluorimeters, set up in the T-format and L-format, respectively, with prism polarizers. All measurements were taken at 20° C. with a λex of 366 nm. Both emission PMTs were fitted with 399 nm cutoff filters. Five measurements of each data point were obtained and averaged. Data were fitted to the binding equation.

T1 sequence (P01111 whole entry): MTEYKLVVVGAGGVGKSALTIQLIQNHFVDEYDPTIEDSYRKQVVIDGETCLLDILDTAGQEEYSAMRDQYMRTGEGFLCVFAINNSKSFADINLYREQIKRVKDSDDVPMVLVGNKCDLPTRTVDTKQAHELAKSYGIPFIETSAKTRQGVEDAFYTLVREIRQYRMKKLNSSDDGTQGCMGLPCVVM

Molecule	effect of PI3Kγ RBD mutation on binding to Ras
E267K: tighter-binding PI3Kγ mutant (protein, UniProt P48736 1-1102, looked up, variant E267K) Phosphatidylinositol …: MELENYKQPVVLREDNCRRRRRMKPRSAAASLSSMELIPIEFVLPTSQRKCKSPETALLHVAGHGNVEQMKAQVWLRALETSVAADFYHRLGPHHFLLLYQKKGQWYEIYDKYQVVQTLDCLRYWKATHRSPGQIHLVQRHPPSEESQAFQRQLTALIGYDVTDVSNVHDDELEFTRRGLVTPRMAEVASRDPKLYAMHPWVTSKPLPEYLWKKIANNCIFIVIHRSTTSQTIKVSPDDTPGAILQSFFTKMAKKKSLMDIPESQSKQDFVLRVCGRDEYLVGETPIKNFQWVRHCLKNGEEIHVVLDTPPDPALDEVRKEEWPLVDDCTGVTGYHEQLTIHGKDHESVFTVSLWDCDRKFRVKIRGIDIPVLPRNTDLTVFVEANIQHGQQVLCQRRTSPKPFTEEVLWNVWLEFSIKIKDLPKGALLNLQIYCGKAPALSSKASAESPSSESKGKVQLLYYVNLLLIDHRFLLRRGEYVLHMWQISGKGEDQGSFNADKLTSATNPDKENSMSISILLDNYCHPIALPKHQPTPDPEGDRVRAEMPNQLRKQLEAIIATDPLNPLTAEDKELLWHFRYESLKHPKAYPKLFSSVKWGQQEIVAKTYQLLARREVWDQSALDVGLTMQLLDCNFSDENVRAIAVQKLESLEDDDVLHYLLQLVQAVKFEPYHDSALARFLLKRGLRNKRIGHFLFWFLRSEIAQSRHYQQRFAVILEAYLRGCGTAMLHDFTQQVQVIEMLQKVTLDIKSLSAEKYDVSSQVISQLKQKLENLQNSQLPESFRVPYDPGLKAGALAIEKCKVMASKKKPLWLEFKCADPTALSNETIGIIFKHGDDLRQDMLILQILRIMESIWETESLDLCLLPYGCISTGDKIGMIEIVKDATTIAKIQQSTVGNTGAFKDEVLNHWLKEKSPTEEKFQAAVERFVYSCAGYCVATFVLGIGDRHNDNIMITETGNLFHIDFGHILGNYKSFLGINKERVPFVLTPDFLFVMGTSGKKTSPHFQKFQDICVKAYLALRHHTNLLIILFSMMLMTGMPQLTSKEDIEYIRDALTVGKNEEDAKKYFLDQIEVCRDKGWTVQFNWFLHLVLGIKQGEKHSA	tighter-binding
D260A: PI3Kγ RBD mutant (protein, UniProt P48736 1-1102, looked up, variant D260A) Phosphatidylinositol …: MELENYKQPVVLREDNCRRRRRMKPRSAAASLSSMELIPIEFVLPTSQRKCKSPETALLHVAGHGNVEQMKAQVWLRALETSVAADFYHRLGPHHFLLLYQKKGQWYEIYDKYQVVQTLDCLRYWKATHRSPGQIHLVQRHPPSEESQAFQRQLTALIGYDVTDVSNVHDDELEFTRRGLVTPRMAEVASRDPKLYAMHPWVTSKPLPEYLWKKIANNCIFIVIHRSTTSQTIKVSPDDTPGAILQSFFTKMAKKKSLMAIPESQSEQDFVLRVCGRDEYLVGETPIKNFQWVRHCLKNGEEIHVVLDTPPDPALDEVRKEEWPLVDDCTGVTGYHEQLTIHGKDHESVFTVSLWDCDRKFRVKIRGIDIPVLPRNTDLTVFVEANIQHGQQVLCQRRTSPKPFTEEVLWNVWLEFSIKIKDLPKGALLNLQIYCGKAPALSSKASAESPSSESKGKVQLLYYVNLLLIDHRFLLRRGEYVLHMWQISGKGEDQGSFNADKLTSATNPDKENSMSISILLDNYCHPIALPKHQPTPDPEGDRVRAEMPNQLRKQLEAIIATDPLNPLTAEDKELLWHFRYESLKHPKAYPKLFSSVKWGQQEIVAKTYQLLARREVWDQSALDVGLTMQLLDCNFSDENVRAIAVQKLESLEDDDVLHYLLQLVQAVKFEPYHDSALARFLLKRGLRNKRIGHFLFWFLRSEIAQSRHYQQRFAVILEAYLRGCGTAMLHDFTQQVQVIEMLQKVTLDIKSLSAEKYDVSSQVISQLKQKLENLQNSQLPESFRVPYDPGLKAGALAIEKCKVMASKKKPLWLEFKCADPTALSNETIGIIFKHGDDLRQDMLILQILRIMESIWETESLDLCLLPYGCISTGDKIGMIEIVKDATTIAKIQQSTVGNTGAFKDEVLNHWLKEKSPTEEKFQAAVERFVYSCAGYCVATFVLGIGDRHNDNIMITETGNLFHIDFGHILGNYKSFLGINKERVPFVLTPDFLFVMGTSGKKTSPHFQKFQDICVKAYLALRHHTNLLIILFSMMLMTGMPQLTSKEDIEYIRDALTVGKNEEDAKKYFLDQIEVCRDKGWTVQFNWFLHLVLGIKQGEKHSA	reduce binding by up to an order of magnitude
Lys-254: PI3Kγ mutant, Lys-254 mutated to Ala (protein, UniProt P48736 1-1102, looked up, variant K254A) Phosphatidylinositol …: MELENYKQPVVLREDNCRRRRRMKPRSAAASLSSMELIPIEFVLPTSQRKCKSPETALLHVAGHGNVEQMKAQVWLRALETSVAADFYHRLGPHHFLLLYQKKGQWYEIYDKYQVVQTLDCLRYWKATHRSPGQIHLVQRHPPSEESQAFQRQLTALIGYDVTDVSNVHDDELEFTRRGLVTPRMAEVASRDPKLYAMHPWVTSKPLPEYLWKKIANNCIFIVIHRSTTSQTIKVSPDDTPGAILQSFFTKMAAKKSLMDIPESQSEQDFVLRVCGRDEYLVGETPIKNFQWVRHCLKNGEEIHVVLDTPPDPALDEVRKEEWPLVDDCTGVTGYHEQLTIHGKDHESVFTVSLWDCDRKFRVKIRGIDIPVLPRNTDLTVFVEANIQHGQQVLCQRRTSPKPFTEEVLWNVWLEFSIKIKDLPKGALLNLQIYCGKAPALSSKASAESPSSESKGKVQLLYYVNLLLIDHRFLLRRGEYVLHMWQISGKGEDQGSFNADKLTSATNPDKENSMSISILLDNYCHPIALPKHQPTPDPEGDRVRAEMPNQLRKQLEAIIATDPLNPLTAEDKELLWHFRYESLKHPKAYPKLFSSVKWGQQEIVAKTYQLLARREVWDQSALDVGLTMQLLDCNFSDENVRAIAVQKLESLEDDDVLHYLLQLVQAVKFEPYHDSALARFLLKRGLRNKRIGHFLFWFLRSEIAQSRHYQQRFAVILEAYLRGCGTAMLHDFTQQVQVIEMLQKVTLDIKSLSAEKYDVSSQVISQLKQKLENLQNSQLPESFRVPYDPGLKAGALAIEKCKVMASKKKPLWLEFKCADPTALSNETIGIIFKHGDDLRQDMLILQILRIMESIWETESLDLCLLPYGCISTGDKIGMIEIVKDATTIAKIQQSTVGNTGAFKDEVLNHWLKEKSPTEEKFQAAVERFVYSCAGYCVATFVLGIGDRHNDNIMITETGNLFHIDFGHILGNYKSFLGINKERVPFVLTPDFLFVMGTSGKKTSPHFQKFQDICVKAYLALRHHTNLLIILFSMMLMTGMPQLTSKEDIEYIRDALTVGKNEEDAKKYFLDQIEVCRDKGWTVQFNWFLHLVLGIKQGEKHSA	greatly lowers the affinity
R226A: PI3Kγ RBD mutant (protein, UniProt P48736 1-1102, looked up, variant R226A) Phosphatidylinositol …: MELENYKQPVVLREDNCRRRRRMKPRSAAASLSSMELIPIEFVLPTSQRKCKSPETALLHVAGHGNVEQMKAQVWLRALETSVAADFYHRLGPHHFLLLYQKKGQWYEIYDKYQVVQTLDCLRYWKATHRSPGQIHLVQRHPPSEESQAFQRQLTALIGYDVTDVSNVHDDELEFTRRGLVTPRMAEVASRDPKLYAMHPWVTSKPLPEYLWKKIANNCIFIVIHASTTSQTIKVSPDDTPGAILQSFFTKMAKKKSLMDIPESQSEQDFVLRVCGRDEYLVGETPIKNFQWVRHCLKNGEEIHVVLDTPPDPALDEVRKEEWPLVDDCTGVTGYHEQLTIHGKDHESVFTVSLWDCDRKFRVKIRGIDIPVLPRNTDLTVFVEANIQHGQQVLCQRRTSPKPFTEEVLWNVWLEFSIKIKDLPKGALLNLQIYCGKAPALSSKASAESPSSESKGKVQLLYYVNLLLIDHRFLLRRGEYVLHMWQISGKGEDQGSFNADKLTSATNPDKENSMSISILLDNYCHPIALPKHQPTPDPEGDRVRAEMPNQLRKQLEAIIATDPLNPLTAEDKELLWHFRYESLKHPKAYPKLFSSVKWGQQEIVAKTYQLLARREVWDQSALDVGLTMQLLDCNFSDENVRAIAVQKLESLEDDDVLHYLLQLVQAVKFEPYHDSALARFLLKRGLRNKRIGHFLFWFLRSEIAQSRHYQQRFAVILEAYLRGCGTAMLHDFTQQVQVIEMLQKVTLDIKSLSAEKYDVSSQVISQLKQKLENLQNSQLPESFRVPYDPGLKAGALAIEKCKVMASKKKPLWLEFKCADPTALSNETIGIIFKHGDDLRQDMLILQILRIMESIWETESLDLCLLPYGCISTGDKIGMIEIVKDATTIAKIQQSTVGNTGAFKDEVLNHWLKEKSPTEEKFQAAVERFVYSCAGYCVATFVLGIGDRHNDNIMITETGNLFHIDFGHILGNYKSFLGINKERVPFVLTPDFLFVMGTSGKKTSPHFQKFQDICVKAYLALRHHTNLLIILFSMMLMTGMPQLTSKEDIEYIRDALTVGKNEEDAKKYFLDQIEVCRDKGWTVQFNWFLHLVLGIKQGEKHSA	reduce binding by up to an order of magnitude
K256A: PI3Kγ RBD mutant (protein, UniProt P48736 1-1102, looked up, variant K256A) Phosphatidylinositol …: MELENYKQPVVLREDNCRRRRRMKPRSAAASLSSMELIPIEFVLPTSQRKCKSPETALLHVAGHGNVEQMKAQVWLRALETSVAADFYHRLGPHHFLLLYQKKGQWYEIYDKYQVVQTLDCLRYWKATHRSPGQIHLVQRHPPSEESQAFQRQLTALIGYDVTDVSNVHDDELEFTRRGLVTPRMAEVASRDPKLYAMHPWVTSKPLPEYLWKKIANNCIFIVIHRSTTSQTIKVSPDDTPGAILQSFFTKMAKKASLMDIPESQSEQDFVLRVCGRDEYLVGETPIKNFQWVRHCLKNGEEIHVVLDTPPDPALDEVRKEEWPLVDDCTGVTGYHEQLTIHGKDHESVFTVSLWDCDRKFRVKIRGIDIPVLPRNTDLTVFVEANIQHGQQVLCQRRTSPKPFTEEVLWNVWLEFSIKIKDLPKGALLNLQIYCGKAPALSSKASAESPSSESKGKVQLLYYVNLLLIDHRFLLRRGEYVLHMWQISGKGEDQGSFNADKLTSATNPDKENSMSISILLDNYCHPIALPKHQPTPDPEGDRVRAEMPNQLRKQLEAIIATDPLNPLTAEDKELLWHFRYESLKHPKAYPKLFSSVKWGQQEIVAKTYQLLARREVWDQSALDVGLTMQLLDCNFSDENVRAIAVQKLESLEDDDVLHYLLQLVQAVKFEPYHDSALARFLLKRGLRNKRIGHFLFWFLRSEIAQSRHYQQRFAVILEAYLRGCGTAMLHDFTQQVQVIEMLQKVTLDIKSLSAEKYDVSSQVISQLKQKLENLQNSQLPESFRVPYDPGLKAGALAIEKCKVMASKKKPLWLEFKCADPTALSNETIGIIFKHGDDLRQDMLILQILRIMESIWETESLDLCLLPYGCISTGDKIGMIEIVKDATTIAKIQQSTVGNTGAFKDEVLNHWLKEKSPTEEKFQAAVERFVYSCAGYCVATFVLGIGDRHNDNIMITETGNLFHIDFGHILGNYKSFLGINKERVPFVLTPDFLFVMGTSGKKTSPHFQKFQDICVKAYLALRHHTNLLIILFSMMLMTGMPQLTSKEDIEYIRDALTVGKNEEDAKKYFLDQIEVCRDKGWTVQFNWFLHLVLGIKQGEKHSA	reduce binding by up to an order of magnitude

From US20040018957A1, “Crystal structure of a Ras-P13K complex” (priority 2000, published 2004)
